The values that follow come from patent US20240002531A1 (ONO PHARMACEUTICAL, published 2024).

T1: HER2 peptide p603-622 (amino acids 603 to 622 of human HER2) (human)
T1 construct: Synthetic peptide; also called wild-type HER2 peptide
T1 peptide: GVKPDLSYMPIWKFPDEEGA

T2: G603A peptide (HER2 603-622 with G603A) (human)
T2 peptide: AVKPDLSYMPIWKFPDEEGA

T3: V604A peptide (HER2 603-622 with V604A) (human)
T3 peptide: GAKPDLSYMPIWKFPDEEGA

T4: K605A peptide (HER2 603-622 with K605A) (human)
T4 peptide: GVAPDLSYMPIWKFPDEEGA

T5: P606A peptide (HER2 603-622 with P606A) (human)
T5 peptide: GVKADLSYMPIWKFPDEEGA

T6: D607A peptide (HER2 603-622 with D607A) (human)
T6 peptide: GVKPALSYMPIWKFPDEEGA

T7: L608A peptide (HER2 603-622 with L608A) (human)
T7 peptide: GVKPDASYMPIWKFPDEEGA

T8: S609A peptide (HER2 603-622 with S609A) (human)
T8 peptide: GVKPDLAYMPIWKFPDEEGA

T9: Y610A peptide (HER2 603-622 with Y610A) (human)
T9 peptide: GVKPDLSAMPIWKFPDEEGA

T10: M611A peptide (HER2 603-622 with M611A) (human)
T10 peptide: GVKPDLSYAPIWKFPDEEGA

T11: P612A peptide (HER2 603-622 with P612A) (human)
T11 peptide: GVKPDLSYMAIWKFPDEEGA

T12: I613A peptide (HER2 603-622 with I613A) (human)
T12 construct: also called 1613A
T12 peptide: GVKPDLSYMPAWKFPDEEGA

T13: W614A peptide (HER2 603-622 with W614A) (human)
T13 peptide: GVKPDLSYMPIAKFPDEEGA

T14: K615A peptide (HER2 603-622 with K615A) (human)
T14 peptide: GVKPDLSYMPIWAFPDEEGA

T15: F616A peptide (HER2 603-622 with F616A) (human)
T15 peptide: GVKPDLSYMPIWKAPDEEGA

T16: P617A peptide (HER2 603-622 with P617A) (human)
T16 peptide: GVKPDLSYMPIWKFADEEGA

T17: D618A peptide (HER2 603-622 with D618A) (human)
T17 peptide: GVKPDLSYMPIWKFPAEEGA

T18: E619A peptide (HER2 603-622 with E619A) (human)
T18 peptide: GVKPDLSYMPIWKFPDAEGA

T19: E620A peptide (HER2 603-622 with E620A) (human)
T19 peptide: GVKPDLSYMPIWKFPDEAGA

T20: G621A peptide (HER2 603-622 with G621A) (human)
T20 peptide: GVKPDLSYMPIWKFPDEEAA

T21: HER2_604-622C peptide (NH2-VKPDLSYMPIWKFPDEEGAC-COOH) (human)
T21 construct: KLH was added for immunisation, the peptide itself was coated in the screening ELISA
T21 peptide: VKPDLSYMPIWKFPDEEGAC

B1: H2Mab-293 antibody (antibody, mouse IgG3, V domains shown)
VH: EVQLVESGGGLVQPGGSLKLSCAASGFTFSNYGIFWVRQTPDKRLELVATVKSNGGSTYYPDSVKGRFTISRDNAKKTLYLQMSSLKSEDTAMYYCAREGGDYWGQGTSVTVSS
VL: DIVMTQSHKFMSTSVGDRVSITCKASQDVGTAVAWYQQKPGQSPKLLIYWTSTRHIGVPDRFTGSGSGTDFTLTIRNVQSEDLANYFCQQYSKNPLTFGAGTKLELKR
B2: H2Mab-295 antibody (antibody, mouse IgG1, kappa, V domains shown)
VH: EVQLQQSGPELVKPGASRKISCKASGYSFTGYTMNWVKKSHGKNLEWIGLINPYNGGTRYNQKFKGKATLTVDKSSSTAYMELLSLTSEDSAVYYCVKEPSDYWGQGTTLTVSS
VL: DVVMTQTPLSLPVSLGDQASISCRSSQSLVHSNGNTYLHWYLQKPGQSPKLLIYKVSKRFSGVPDRFSGCGSGTDFTLKISRLEAEDLGVYFCSQSSHVPPTFGGGTKLEIKR
B3: H2Mab-294 antibody (antibody, mouse IgG1, kappa, V domains shown)
VH: EVQLVESGGGLVQPGGSLKLSCAASGFTFSSYGMSWVRQTPDKRLELVATINSNGGGTYYPDSVKGRFTISRDNAKNTLYLQMSSLKSEDTAIYYCASPGSWFPYWGQGTLVTVSA
VL: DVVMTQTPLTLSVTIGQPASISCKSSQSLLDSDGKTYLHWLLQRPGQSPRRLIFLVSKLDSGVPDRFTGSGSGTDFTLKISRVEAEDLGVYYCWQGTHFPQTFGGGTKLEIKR

One test deals with T1, HER2 peptide p603-622 (amino acids 603 …). The test can be described thus: peptide ELISA, OD 655 nm. (In an ELISA, binding on a coated surface is turned into a signal by an enzyme label.)
Regarding B1, the binding result is recorded as “binds”.
Same read-out and setting: next, B2: “binds”; B3: “binds”.

In a further test the target is T2, G603A peptide (HER2 603-622 with G603A). The test can be described thus: peptide ELISA, OD 655 nm.
B1: the binding result is “binds”.
Same read-out and setting: then B2, with “binds”; and B3, with “binds”.

For a further test, the target named is T3, V604A peptide (HER2 603-622 with V604A). The test can be described thus: peptide ELISA, OD 655 nm.
Consider B1, for which the binding result is listed as “binds”.
On the same count and under the same terms, next, B2: “binds”; B3: “binds”.

A further test concerns the target T4, K605A peptide (HER2 603-622 with K605A). The test can be described thus: peptide ELISA, OD 655 nm.
As for B1, the binding result is “binds”.
Still for that read-out and setting: then B2, with “binds”.
On the same count and under the same terms, then B3, with “binds”.

A further test addresses T5, P606A peptide (HER2 603-622 with P606A). The test can be described thus: peptide ELISA, OD 655 nm.
For B1, the binding result is given as “binds”.
With B2, the binding result is “binds”.
On the same count and under the same terms, then B3, with “binds”.

The target of a further test is T6, D607A peptide (HER2 603-622 with D607A). The test can be described thus: peptide ELISA, OD 655 nm.
For the molecule B1, the binding result is recorded as “binds”.
On the same count and under the same terms, next, B2: “binds”.
As to B3, the binding result is listed as “binds”.

A further test has as its target T7, L608A peptide (HER2 603-622 with L608A). The test can be described thus: peptide ELISA, OD 655 nm.
Consider B1, for which the binding result was “binds”.
Same read-out and setting: then B2, with “binds”; and B3, with “binds”.

The target of the next test is T8, S609A peptide (HER2 603-622 with S609A). The test can be described thus: peptide ELISA, OD 655 nm.
In the case of B1, the binding result is “binds”.
The same measure, in the same setting: then B2, with “binds”; and B3, with “binds”.

The next test concerns the target T9, Y610A peptide (HER2 603-622 with Y610A). The test can be described thus: peptide ELISA, OD 655 nm.
Turning to B1, the binding result is given as “binds”.
Same read-out and setting: then B2, with “binds”; and B3, with “binds”.

The next test deals with T10, M611A peptide (HER2 603-622 with M611A). The test can be described thus: peptide ELISA, OD 655 nm.
B1: the binding result is recorded as “binds”.
On the same count and under the same terms, then B2, with “binds”; and B3, with “binds”.

The next test deals with T11, P612A peptide (HER2 603-622 with P612A). The test can be described thus: peptide ELISA, OD 655 nm.
For B1, the binding result was “binds”.
Same read-out and setting: next, B2: “binds”; B3: “binds”.

A further test addresses T12, I613A peptide (HER2 603-622 with I613A). The test can be described thus: peptide ELISA, OD 655 nm.
As for B1, the binding result was “binds”.
As to B2, the binding result is “binds”.
The same measure, in the same setting: next, B3: “binds”.

A further test deals with T13, W614A peptide (HER2 603-622 with W614A). The test can be described thus: peptide ELISA, OD 655 nm.
In the case of B1, the binding result is “binds”.
For B2, the binding result is reported as “binds”.
As for B3, the binding result is on record as “no binding (tested: 10 ug/ml)”.

A further test concerns the target T14, K615A peptide (HER2 603-622 with K615A). The test can be described thus: peptide ELISA, OD 655 nm.
As for B1, the binding result was “binds”.
For the molecule B2, the binding result was “binds”.
On the same count and under the same terms, then B3, with “binds”.

A further test has as its target T15, F616A peptide (HER2 603-622 with F616A). The test can be described thus: peptide ELISA, OD 655 nm.
For B1, the binding result is recorded as “binds”.
On the same count and under the same terms, then B2, with “binds”; and B3, with “binds”.

A further test has as its target T16, P617A peptide (HER2 603-622 with P617A). The test can be described thus: peptide ELISA, OD 655 nm.
Turning to B1, the binding result is “binds”.
For B2, the binding result was “binds”.
On the same count and under the same terms, then B3, with “binds”.

The target in the next test is T17, D618A peptide (HER2 603-622 with D618A). The test can be described thus: peptide ELISA, OD 655 nm.
In the case of B1, the binding result is on record as “binds”.
As for B2, the binding result was “binds”.
Still for that read-out and setting: then B3, with “binds”.

The target in another test is T18, E619A peptide (HER2 603-622 with E619A). The test can be described thus: peptide ELISA, OD 655 nm.
As to B1, the binding result is “binds”.
With B2, the binding result was “binds”.
The same measure, in the same setting: then B3, with “binds”.

The next test has as its target T19, E620A peptide (HER2 603-622 with E620A). The test can be described thus: peptide ELISA, OD 655 nm.
For B1, the binding result is given as “binds”.
The same measure, in the same setting: next, B2: “binds”.
B3: the binding result is “binds”.

Another test concerns the target T20, G621A peptide (HER2 603-622 with G621A). The test can be described thus: peptide ELISA, OD 655 nm.
For the molecule B1, the binding result is “binds”.
On the same count and under the same terms, next, B2: “binds”; B3: “binds”.

Another test has as its target T21, HER2_604-622C peptide …. The test can be described thus: peptide ELISA, OD 655 nm.
In the case of B1, the binding result is “binds”.
In the case of B2, the binding result was “binds”.
Still for that read-out and setting: then B3, with “binds”.
